Results on five molecules are retold here after patent US20250346644A1 (LATTICON SUZHOU BIOPHARMACEUTICALS, published 2025).

Assay [1] has as its target T1, high-affinity IL2R expressed on the surface of CTLL-2 cells.
T1 sequence (P01590 whole entry, species assumed, looked up): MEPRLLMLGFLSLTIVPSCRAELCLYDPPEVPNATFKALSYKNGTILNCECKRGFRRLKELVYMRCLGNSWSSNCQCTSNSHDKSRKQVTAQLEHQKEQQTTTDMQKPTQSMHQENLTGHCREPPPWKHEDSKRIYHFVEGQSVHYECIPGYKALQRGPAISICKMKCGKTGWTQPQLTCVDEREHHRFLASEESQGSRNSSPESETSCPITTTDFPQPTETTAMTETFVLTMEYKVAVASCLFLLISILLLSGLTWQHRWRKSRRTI
T1 sequence (P16297 whole entry, species assumed, looked up): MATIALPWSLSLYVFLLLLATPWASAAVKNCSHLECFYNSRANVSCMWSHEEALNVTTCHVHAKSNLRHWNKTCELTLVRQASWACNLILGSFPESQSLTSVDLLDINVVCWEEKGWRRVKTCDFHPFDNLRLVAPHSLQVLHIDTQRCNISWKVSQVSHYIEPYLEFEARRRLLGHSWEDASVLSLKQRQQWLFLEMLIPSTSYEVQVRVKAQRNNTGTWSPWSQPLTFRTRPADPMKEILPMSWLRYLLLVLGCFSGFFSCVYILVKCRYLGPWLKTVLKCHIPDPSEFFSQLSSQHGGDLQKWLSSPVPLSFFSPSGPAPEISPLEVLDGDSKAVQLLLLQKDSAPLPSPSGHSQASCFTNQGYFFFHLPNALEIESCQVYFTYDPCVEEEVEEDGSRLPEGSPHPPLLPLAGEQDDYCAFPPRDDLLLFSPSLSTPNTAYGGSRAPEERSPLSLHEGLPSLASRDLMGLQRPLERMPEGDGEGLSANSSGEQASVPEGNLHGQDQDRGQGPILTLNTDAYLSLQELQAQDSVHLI
T1 sequence (P34902 whole entry, species assumed, looked up): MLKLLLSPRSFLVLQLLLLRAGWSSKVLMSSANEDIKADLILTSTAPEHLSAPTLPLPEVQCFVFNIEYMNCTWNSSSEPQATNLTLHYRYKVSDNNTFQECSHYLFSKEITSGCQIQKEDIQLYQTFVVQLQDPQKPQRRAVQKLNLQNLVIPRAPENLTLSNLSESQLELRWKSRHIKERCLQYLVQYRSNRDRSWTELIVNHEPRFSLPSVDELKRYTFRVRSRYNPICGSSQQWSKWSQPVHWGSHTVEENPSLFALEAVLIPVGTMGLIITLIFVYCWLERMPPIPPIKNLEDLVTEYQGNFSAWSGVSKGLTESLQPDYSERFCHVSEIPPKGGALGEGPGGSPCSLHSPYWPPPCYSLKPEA
As to the kind of experiment: cell-based or functional assay.

Assay [2] concerns the target T2, hIL2Rβ (hCD122) (human, UniProt P14784 27-239, limits assumed).
T2 construct: bought recombinant protein; also called hCD122 (Acro)
T2 sequence (looked up): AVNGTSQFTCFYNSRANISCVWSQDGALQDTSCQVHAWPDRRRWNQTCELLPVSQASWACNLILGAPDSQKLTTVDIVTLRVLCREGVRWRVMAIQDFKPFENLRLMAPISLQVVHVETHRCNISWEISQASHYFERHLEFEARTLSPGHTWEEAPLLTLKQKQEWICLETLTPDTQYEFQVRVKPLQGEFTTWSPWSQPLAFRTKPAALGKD
Nature of the assay: ELISA (method of section 2.1.1): sample captured on coated goat anti-human IgG, hCD122 titrated; the x axis is the CD122 concentration. Background: ELISA stands for enzyme-linked immunosorbent assay.
Experimental: ELISA was performed as follows: a goat anti-human IgG (Jackson Immunoresearch) was diluted to 1 μg/mL in 1×PBS and added to an ELISA plate at 100 μL/well, and then incubated at 4° C. overnight. The plate was washed with PBS and then blocked at room temperature for 1 hour after adding the blocking solution (PBST containing 1% BSA) to each well. […] The plate was washed with PBST; the HRP-labeled anti-6×His-tag secondary antibody (Proteintech) diluted at a ratio of 1:10,000 in blocking solution was then added to each well and incubated at room temperature for 1 hour. The plate was washed with PBST; the TMB chromogenic solution (Thermo) was added to each well and incubated in dark for 3-10 minutes at room temperature. The stop solution (2 M HCl) was added to each well, and OD values at a wavelength of 450-570 nm were read using a multimode microplate reader (Varioskan, Thermo).

The target in assay [3] is T1, high-affinity IL2R expressed on the …. Nature of the assay: cell-based or functional assay. The source holds these as a separate data set.
Assay [4] deals with T2, hIL2Rβ (hCD122). Nature of the assay: ELISA (method of section 4.2.1): sample captured on coated goat anti-human IgG, hCD122 titrated; the x axis is the CD122 concentration.
In assay [5] the target is T3, hIL2Rα (hCD25) (human, UniProt P01589 22-213, limits assumed).
T3 construct: bought recombinant protein; also called hCD25 (Acro); biotin-CD25 (Acro)
T3 sequence (looked up): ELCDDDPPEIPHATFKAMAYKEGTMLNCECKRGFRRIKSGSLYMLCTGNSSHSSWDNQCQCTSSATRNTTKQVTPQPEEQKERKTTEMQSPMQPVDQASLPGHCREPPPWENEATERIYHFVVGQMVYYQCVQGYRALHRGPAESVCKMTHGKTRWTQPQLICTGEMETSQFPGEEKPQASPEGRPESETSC
As to the kind of experiment: ELISA (method of section 4.2.1): sample captured on coated goat anti-human IgG, hCD25 titrated; the x axis is the CD25 concentration.

In assay [6] the target is T4, hIL2-TM-his (human, UniProt P60568 21-153).
T4 construct: also called hIL-2 mutein containing three point mutations K64G, N90R and M104E (with a his-tag); not shown: his-tag
T4 chain: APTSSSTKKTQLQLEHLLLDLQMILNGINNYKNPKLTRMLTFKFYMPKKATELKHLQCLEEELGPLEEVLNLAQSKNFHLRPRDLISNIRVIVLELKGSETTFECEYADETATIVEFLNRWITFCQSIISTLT
Nature of the assay: BLI ForteBio, Ab on Protein A sensor. On the technique in general: Biolayer interferometry detects binding as a change in optical thickness at a sensor tip.

The target of assay [7] is T5, mIL2-his (mouse, UniProt P04351 21-169).
T5 construct: also called wild-type mouse IL-2 (with a his-tag); not shown: his-tag
T5 sequence (looked up): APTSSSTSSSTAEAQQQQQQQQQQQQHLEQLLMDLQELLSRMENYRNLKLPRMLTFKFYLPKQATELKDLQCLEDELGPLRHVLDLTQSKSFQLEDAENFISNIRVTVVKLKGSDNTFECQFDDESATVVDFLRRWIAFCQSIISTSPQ
Nature of the assay: BLI ForteBio, Ab on Protein A sensor.

Assay [8] deals with T6, hIL2Rα/β complex (human, UniProt P01589 22-213; P14784 27-239).
T6 construct: assembled in the BLI assay from bought subunits; also called hIL2Rα/O complex
T6 sequence (looked up) 1: T3 sequence (looked up)
T6 sequence (looked up) 2: T2 sequence (looked up)
Nature of the assay: BLI (ForteBio): biotin-CD25 on an SA sensor, CD122 step, then sample (100 nM by the text) together with CD122.
Experimental: (§1) The specific method was described as follows: biotin-CD25 (Acro) was diluted in 1×PBS to 5 μg/mL and added to a 96-well black-wall plate at 200 μL per well; hIL2Rβ (Acro) was diluted to 5 μg/mL in 1×PBS and also added to the 96-well black-wall plate at 200 μL per well. […] The 96-well black-wall plate containing the testing samples and a SA sensor was uploaded onto the analyzer, and a program was inputted. The SA sensor was firstly immersed into the well with biotin-CD25 (Acro) and then with hIL2Rβ (Acro) till saturation. After that, the sensor was immersed in the testing sample well and the binding signal was recorded in real-time. At the end of each association-dissociation cycle, the sensor was regenerated by immersing in 500 mM phosphate buffer and then started with the next cycle of detection.

Assay [9] concerns the target T3, hIL2Rα (hCD25). Nature of the assay: BLI (ForteBio): biotin-CD25 on an SA sensor, buffer step, then sample (100 nM by the text).
Assay [10] concerns the target T7, hIL2Rα/β/γ complex (human, UniProt P01589 22-213; P14784 27-239; P31785 23-254).
T7 construct: assembled in the BLI assay from bought subunits; also called hIL2Rα/o/γ complex
T7 sequence (looked up) 1: T3 sequence (looked up)
T7 sequence (looked up) 2: T2 sequence (looked up)
T7 sequence (looked up) 3: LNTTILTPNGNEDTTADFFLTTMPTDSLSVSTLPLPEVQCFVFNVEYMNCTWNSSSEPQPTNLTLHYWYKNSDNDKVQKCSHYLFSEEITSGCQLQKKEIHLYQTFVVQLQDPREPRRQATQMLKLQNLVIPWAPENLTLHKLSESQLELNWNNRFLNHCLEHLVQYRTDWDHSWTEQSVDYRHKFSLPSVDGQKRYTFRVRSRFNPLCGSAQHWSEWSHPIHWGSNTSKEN
Nature of the assay: BLI (ForteBio): biotin-CD25 on an SA sensor, CD122 step, then sample (100 nM by the text) together with CD132.
Experimental: as §1

Numbering of substitutions follows the chain as printed. Names may count otherwise.

For orientation: Kd means the equilibrium constant for the complex coming apart. One may read the koff as the rate constant with which the complex falls apart. A low value points to slow dissociation. As usually defined, the kon is the rate constant with which the complex forms. A lower kon goes with slower complex formation.

B1: IC-Cy08 (other)
heavy: APTSSSTKKTQLQLEHLLLDLQMILNGINNYKNPKLTRMLTFKFYMPKKATELKHLQCLEEELGCLEEVLNLAQSKNFHLRPRDLISNIRVIVLELKGSETTFMCEYADETATIVEFLNRWITFCQSIISTLTGGGGSGGGGSGGGGSGGGGSQVQLVQSGAEVKKPGATVKISCKVSGDTITAYYMHWVRQAPGQGLEWIGRIDPEDDSTKYAENFKGRVTITADTSTDTAYMELSSLRSEDTAVYYCTTVTCYYSRELRWFAYWGQGTLVTVSS
VL: DIVLTQSPATLSLSPGERATLSCQASQDIGNYLSWYQQKPGQAPRLLIYSATSLASGIPARFSGSRSGTDFTLTISSLEPEDFAVYYCLQHYSTPYTFGQGTKLEIK
notes: hIL-2/anti-IL-2 antibody fusion protein, disulfide IL:65-H:97; also called H6K3(H)-Cy08; H6K3(H)-Cy-08
B1: in [1], the “STAT5 phosphorylation in CTLL-2 cells by flow cytometry, EC50” value stood at 0.234 nM. Moreover, in assay [2], the binding result is “binds”. The “Activity in Promoting CTLL-2 Cell Proliferation (EC50, nM)” value (“Activity” below) in assay [3] turned out to be 0.425 nM.

B2: K2G11-Cy06 (other)
heavy: SSSTKKTQLQLEHLLLDLQMILNGINNYKNPKLTRMLTFKFYMPKKATELKHLQCLEEELGPLEEVLNLAQSKNFHLRPRDLISNIRVIVLELKGSETCFMCEYADETATIVEFLNRWITFLQSIISTLTGGGGSGGGGSGGGGSGGGGSQVQLVQSGAEVKKPGATVKISCKVSGDTITAYYMHWVRQAPGQGLEWIGRIDPDDDSTKYAENFKGRVTITADTSTDTAYMELSSLRSEDTAVYYCTTITFLYSRELRWFAYWGQGTLVTVSS
VL: B1 VL with D28Y, G30S, G68C
notes: hIL2-DM (Δ3, C125L) fused to the heavy chain of K2G11, disulfide IL:102-L:68
As for B2, the binding result in [4] is given as “binds”; in assay [5] it was “no binding (tested: 10 µg/mL)”. The “Activity” value in assay [3] was found to be 5.77 nM.

B3: hS4B6-H6K3(H) (antibody, V domains shown)
VH: QVQLVQSGAEVKKPGATVKISCKVSGDTITAYYMHWVRQAPGQGLEWIGRIDPEDDSTKYAENFKGRVTITADTSTDTAYMELSSLRSEDTAVYYCTTVTFYYSRELRWFAYWGQGTLVTVSS
VL: B1 VL
notes: H6K3 with L34M, N65G, N76D (heavy) and D56S, Y71F (light)
In assay [6], B3 showed a Kd of 9.88 nM, a koff of 0.0027 s⁻¹ and a kon of 274000 M⁻¹ s⁻¹. Also, in [7], the affinity, expressed as Kd, was 0.254 nM; the koff is 0.000236 s⁻¹; the kon amounted to 928000 M⁻¹ s⁻¹.

B4: H6K3(H)-Cy10 (other)
heavy: B2 heavy with F39C, C99T, D204E, I249V, F251C, L252Y
VL: B1 VL
notes: fusion with the parental antibody hS4B6-H6K3(H), disulfide IL:42-H:97; also called H6K3-Cy10
As for B4, in [5], the binding result was “no binding (tested: 10 µg/mL)”.

B5: hIL2-DM (Δ3, C125L) (ligand)
chain: SSSTKKTQLQLEHLLLDLQMILNGINNYKNPKLTRMLTFKFYMPKKATELKHLQCLEEELGPLEEVLNLAQSKNFHLRPRDLISNIRVIVLELKGSETTFMCEYADETATIVEFLNRWITFLQSIISTLT
notes: first three N-terminal residues (APT) deleted; also called hIL2-DM (Δ3, 125L); hIL2-DM (Δ3, C125L) mutein
As for B5, the binding result in assay [8], in assay [9] and in [10] was “binds” throughout. For the same molecule, the “Activity” value in assay [3] came to 0.156 nM.
